What was measured:
[1] = target: equine FcRn (large alpha subunit p51) / equine beta-2-microglobulin complex, biotinylated (equine) (UniProt P30441); test: SPR (Biacore), pH 6
[2] = target: equine FcRn (large alpha subunit p51) / equine beta-2-microglobulin complex, biotinylated (equine) (UniProt P30441); test: SPR (Biacore), pH 7.4
[3] = target: equine FcRn (large alpha subunit p51) in complex with equine beta-2-microglobulin (equine) (UniProt F6XZ61); test: SPR (Biacore), pH 6
Sequence of UniProt F6XZ61 (F6XZ61 entry or part of it, one chain of several): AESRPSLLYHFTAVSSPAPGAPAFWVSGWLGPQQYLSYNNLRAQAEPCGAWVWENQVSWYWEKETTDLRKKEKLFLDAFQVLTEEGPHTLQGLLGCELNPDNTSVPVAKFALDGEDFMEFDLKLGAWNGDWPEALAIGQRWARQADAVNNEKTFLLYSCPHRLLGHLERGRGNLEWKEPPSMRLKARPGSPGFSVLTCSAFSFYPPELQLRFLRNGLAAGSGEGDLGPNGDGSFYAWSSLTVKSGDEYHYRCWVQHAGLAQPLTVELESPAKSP

Sequence of UniProt P30441 (P30441 21-118, one chain of several): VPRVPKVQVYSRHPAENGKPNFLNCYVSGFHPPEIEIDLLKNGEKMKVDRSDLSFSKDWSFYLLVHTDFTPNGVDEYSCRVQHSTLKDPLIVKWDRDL

Binder | Kd [1] [nM] | Kd [2] [nM] | Kd [3] [nM]
equine IgG1 N434W (antibody, part only; not given: Variable domains, not shown: another chain or arm of the molecule) constant: ASTTAPKVFALAPGCGTTSDSTVALGCLVSGYFPEPVKVSWNSGSLTSGVHTFPSVLQSSGFYSLSSMVTVPASTWTSETYICNVVHAASNFKVDKRIEPIPDNHQKVCDMSKCPKCPAPELLGGPSVFIFPPNPKDTLMITRTPEVTCVVVDVSQENPDVKFNWYMDGVEVRTATTRPKEEQFNSTYRVVSVLRIQHQDWLSGKEFKCKVNNQALPQPIERTITKTKGRSQEPQVYVLAPHPDELSKSKVSVTCLVKDFYPPEINIEWQSNGQPELETKYSTTQAQQDSDGSYFLYSKLSVDRNRWQQGTTFTCGVMHEALHWHYTQKNVSKNPGK | 1.86 | 7310 | 
equine IgG7 T286Y mutant (antibody, part only; not given: Variable domains, not shown: another chain or arm of the molecule) constant: ASTTAPKVFPLASHSAATSGSTVALGCLVSSYFPEPVTVSWNSGALTSGVHTFPSVLQSSGLYSLSSMVTVPASSLKSQTYICNVAHPASSTKVDKKIVIKECGGCPTCPECLSVGPSVFIFPPKPKDVLMISRTPTVTCVVVDVGHDFPDVQFNWYVDGVETHYATTEPKQEQNNSTYRVVSILAIQHKDWLSGKEFKCKVNNQALPAPVQKTISKPTGQPREPQVYVLAPHRDELSKNKVSVTCLVKDFYPTDIDIEWKSNGQPEPETKYSTTPAQLDSDGSYFLYSKLTVETNRWQQGTTFTCAVMHEALHNHYTEKSVSKSPGK |  |  | 14.9
equine IgG1 N434F (antibody, part only; not given: variable domains, not shown: another chain or arm of the molecule) constant: ASTTAPKVFALAPGCGTTSDSTVALGCLVSGYFPEPVKVSWNSGSLTSGVHTFPSVLQSSGFYSLSSMVTVPASTWTSETYICNVVHAASNFKVDKRIEPIPDNHQKVCDMSKCPKCPAPELLGGPSVFIFPPNPKDTLMITRTPEVTCVVVDVSQENPDVKFNWYMDGVEVRTATTRPKEEQFNSTYRVVSVLRIQHQDWLSGKEFKCKVNNQALPQPIERTITKTKGRSQEPQVYVLAPHPDELSKSKVSVTCLVKDFYPPEINIEWQSNGQPELETKYSTTQAQQDSDGSYFLYSKLSVDRNRWQQGTTFTCGVMHEALHFHYTQKNVSKNPGK | 2.83 | 14600 | 

— patent US20260070987A1
